Experimental data published in paper PMC4733626.

Target: wild-type metallo-β-lactamase L1 (UniProt P52700)
Assay: SEC

spin-labeled T163C/K286C mutant of metallo-β-lactamase L1 (enzyme)
stoichiometry N: 4
